Experimental data taken from paper PMC12639696, “Death-associated protein kinase 1-dependent SENP1 degradation increases tau SUMOylation and leads to cognitive dysfunction in a mouse model for tauopathy” (Molecular Neurodegeneration, 2025).

Target: T1, His-DAPK1 (848–1288 aa) (UniProt P53355 848-1288)
T1 construct: source: purified recombinant protein
T1 sequence (looked up): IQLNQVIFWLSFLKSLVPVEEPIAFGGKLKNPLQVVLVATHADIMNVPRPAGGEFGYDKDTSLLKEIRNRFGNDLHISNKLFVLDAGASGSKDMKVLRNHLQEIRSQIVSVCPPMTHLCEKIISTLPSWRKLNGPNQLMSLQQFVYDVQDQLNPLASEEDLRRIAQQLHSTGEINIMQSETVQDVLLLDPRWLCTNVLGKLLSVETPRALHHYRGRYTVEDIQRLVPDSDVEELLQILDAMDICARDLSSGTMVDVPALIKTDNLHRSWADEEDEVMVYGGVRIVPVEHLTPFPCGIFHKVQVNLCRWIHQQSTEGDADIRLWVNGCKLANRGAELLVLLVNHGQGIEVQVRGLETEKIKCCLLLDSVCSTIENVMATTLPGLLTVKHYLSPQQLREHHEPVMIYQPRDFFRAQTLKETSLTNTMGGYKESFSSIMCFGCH
Assay: pull-down; purified His-DAPK1 (848–1288 aa) incubated with GST or GST-SENP1 proteins; immunoblot with an anti-His antibody
Conditions: both partners purified

B1: GST-SENP1 (1-200 aa) (domain or fragment, UniProt Q9P0U3 1-200, looked up)
chain: MDDIADRMRMDAGEVTLVNHNSVFKTHLLPQTGFPEDQLSLSDQQILSSRQGHLDRSFTCSTRSAAYNPSYYSDNPSSDSFLGSGDLRTFGQSANGQWRNSTPSSSSSLQKSRNSRSLYLETRKTSSGLSNSFAGKSNHHCHVSAYEKSFPIKPVPSPSWSGSCRRSLLSPKKTQRRHVSTAEETVQEEEREIYRQLLQM
notes: Sentrin-specific protease 1 (SENP1), N-terminal region, residues 1-200; also called N-terminal region (1-200 aa) of SENP1; source: E. coli, purified GST fusion protein
binding result: binds
